According to patent US20180044435A1 (GENEFRONTIER, published 2018):

Legend:
[1] = target: fusion protein of MBP with region 524-562 of human membrane-anchored form ADAM28 (SEQ ID NO: 2) at its … (human); experiment: Western blotting
Description: The reactivity of anti-human membrane-anchored form ADAM28 antibody 2B6D10 with the above-mentioned fusion proteins was evaluated by Western blotting.

[2] = target: T1, mouse membrane-anchored form ADAM28 (mouse, UniProt Q9JLN6 196-774); experiment: immunofluorescence staining of transfected CHO-K1 cells, 5 µg/ml antibody
T1 construct: Expressed on transfected CHO-K1 cells; also called mouse ADAM28m; mouse ADAM28
T1 chain: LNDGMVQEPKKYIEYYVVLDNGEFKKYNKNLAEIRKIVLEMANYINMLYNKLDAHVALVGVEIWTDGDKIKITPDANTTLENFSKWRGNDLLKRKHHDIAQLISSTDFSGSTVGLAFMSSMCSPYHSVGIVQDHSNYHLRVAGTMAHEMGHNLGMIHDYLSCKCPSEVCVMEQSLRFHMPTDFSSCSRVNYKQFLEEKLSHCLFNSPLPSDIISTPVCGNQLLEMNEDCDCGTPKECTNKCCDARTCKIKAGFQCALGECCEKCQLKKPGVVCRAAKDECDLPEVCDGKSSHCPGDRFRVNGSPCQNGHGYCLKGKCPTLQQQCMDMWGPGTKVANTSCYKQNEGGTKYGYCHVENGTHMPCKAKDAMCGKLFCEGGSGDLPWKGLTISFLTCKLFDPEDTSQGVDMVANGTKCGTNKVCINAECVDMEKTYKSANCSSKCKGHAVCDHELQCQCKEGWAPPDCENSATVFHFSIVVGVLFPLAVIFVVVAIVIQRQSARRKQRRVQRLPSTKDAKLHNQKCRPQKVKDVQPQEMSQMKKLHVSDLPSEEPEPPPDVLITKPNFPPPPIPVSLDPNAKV
Description: CHO-K1 cells co-transfected with mouse membrane-anchored form ADAM28 and EGFP were treated with 2B6D10 antibody (5 μg/ml) at 4° C. for 1.5 hr. The cells were washed and treated with anti-mouse IgG-Alexa555 (1:300) at 4° C. for 1 hr. The cells were washed, fixed and observed. The results are shown in, FIG. 3.

[3] = target: T2, MBP-mouse ADAM28m 527-622 (mouse, UniProt Q9JLN6 527-622); experiment: SPR, BIAcore 3000, fusion protein amine-coupled on CM5 chip, antibody injected
T2 sequence: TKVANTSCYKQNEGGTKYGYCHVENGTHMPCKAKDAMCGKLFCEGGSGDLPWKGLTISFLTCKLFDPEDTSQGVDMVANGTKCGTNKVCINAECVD
Description: (§1) A fusion protein in which a 524-659 region of human membrane-anchored form ADAM28 (SEQ ID NO: 2) is added to C-terminal of MBP (MBP-human ADAM28m 524-659) and a fusion protein in which a 527-622 region of mouse membrane-anchored form ADAM28 (SEQ ID NO: 26) is added to C-terminal of MBP (MBP-mouse ADAM28m 527-622) were each immobilized on CM5 sensor chip (GE Healthcare Life Sciences, Buckinghamshire, UK) by amine-coupling and 2B6D10 antibody was injected to a flow cell by using BIAcore 3000 (GE Healthcare Life Sciences). The KD value was calculated from the measured Ka and Kd values.

[4] = target: T3, MBP-human ADAM28m 524-659 (human, UniProt Q9UKQ2 524-659); experiment: as above
T3 construct: also called the immunogen
T3 sequence: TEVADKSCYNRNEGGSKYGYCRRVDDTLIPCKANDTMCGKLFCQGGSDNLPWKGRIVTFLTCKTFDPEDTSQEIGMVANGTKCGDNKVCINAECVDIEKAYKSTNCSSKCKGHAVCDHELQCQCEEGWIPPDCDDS
Description: as §1

B1: anti-human membrane-anchored form ADAM28 antibody 2B6D10 (antibody, V domains shown)
VH: QVQLQQSGAELARPGASVKLSCKASGYTFTSYGISWVKQRTGQGLEWIGEIYPRSGNTYYNEKFKGKATLTADKSSSTAYMELRRLTSEDSAVFFCARENVYSSNYGFAFWGQGTLVTVSA
VL: DVLMTQTPLSLPVSLGDQASISCRSSQNIIHSDGNTYLEWYLQKPGQSPKFLIYKVSNRFSGVPDRFSGSGSGTDFTLKISRVEAEDLGVYYCLQGSHVPWTFGGGTKLEIKR
notes: Mouse monoclonal antibody from a hybridoma, detected with anti-mouse IgG; also called 2B6D10 antibody; clone 2B6D10
- binding result [1]: binds
- binding result [2]: binds
- Kd [3]: 0.236 nM
- Kd [4]: 0.0935 nM
